{"source": "patent US8691225B2", "about": "“Antibodies against the ectodomain of ErbB3 and uses thereof” (Merrimack Pharmaceuticals, Inc., priority 2007, dated 2014)", "molecules": {"B1": {"name": "Ab #6: human anti-ErbB3 antibody from Fab-phage library, CDRs SEQ ID NOs:7-12; used as IgG1 and IgG2 isotypes; in phase I trials as MM-121 (antibody, V domains shown)", "VH": "EVQLLESGGGLVQPGGSLRLSCAASGFTFSHYVMAWVRQAPGKGLEWVSSISSSGGWTLYADSVKGRFTISRDNSKNTLYLQMNSLRAEDTAVYYCTRGLKMATIFDYWGQGTLVTVSS", "VL": "QSALTQPASVSGSPGQSITISCTGTSSDVGSYNVVSWYQQHPGKAPKLIIYEVSQRPSGVSNRFSGSKSGNTASLTISGLQTEDEADYYCCSYAGSSIFVIFGGGTKVTVL"}}, "key": {"AdrR (ovarian) xenograft": {"system": "AdrR (ovarian) xenograft", "test": "xenograft tumor growth in nude mice", "format": "in vivo, mouse", "conditions": "300 ug every three days (Q3d); p<0.05", "method": "(§1) For example, T-cell deficient nu/nu mice (3-4 week old female mice originated at NIH; outbred; albino background) are purchased from Charles River Labs (Wilmington, Mass.) for xenograft studies. AdrR cells for implantation are grown in culture (RPMI media, 10% FBS, L-glutamine and antibiotics, 37° C., 5% CO2) to about 85% confluency before harvesting. Cells are kept on ice until implantation. Mice are implanted via subcutaneous injection with 100 μl AdrR cells (6×10^6 cells in PBS) on the right flank and allowed to recover while being monitored for initial tumor growth.\n(§2) Tumors are measured (length by width) by digital caliper and the mice are dosed with IgG2a (Sigma, M7769-5MG) by intravenous injection.\n(§3) Final tumor measurements (L×W) are taken, the mice are euthanized by CO2 asphyxiation and tumors are excised, snap frozen in liquid nitrogen, and are stored at −80° C. (for biochemical analysis). Final tumor measurements are analyzed and graphed by tumor area and tumor volume, as described in Burtrum et al., supra. The data are also analyzed by “normalized” and “non-normalized” means for both tumor volume and tumor area. For the “normalization” of the data, at each time point of measurement, each tumor in each group is divided by the initial tumor size determined by caliper measurement."}, "[1]": {"system": "OvCAR8 (ovarian) xenograft", "test": "xenograft tumor growth in nude mice", "format": "in vivo, mouse", "method": "as §1, §2, §3"}, "[2]": {"molecular_target": "T1, recombinant human EGFR ectodomain (Homo sapiens, UniProt P00533)", "T1 construct": "recombinant human EGFR ectodomain", "test": "binding specificity ELISA", "conditions": "IgG2 isotype of Ab #6", "method": "(§4) 96-well NUNC MAXISORB plates are coated by overnight incubation at room temperature with 50 μl/well of 5 μg/ml of individual proteins. The proteins are recombinant human EGFR ectodomain, BSA, recombinant human ErbB3 ectodomain and TGF-α. The next morning, plates are washed 3 times with […] of PBST (0.05% Tween-20) in the BIOTEK plate washer. The wells are blocked for 1 hr at room temperature with 2% BSA in PBS and washed again as before. […] All samples are run in duplicate and incubated for 2 hrs at 4° C. on a plate shaker. The plates are washed again as before. 50 μl of human IgG-Fc detection antibody (HRP conjugated, Bethyl Laboratories, Inc; 1:75000 dilution in 2% BSA, PBST) is added and the plates are incubated for 1 hr at room temperature. The plates are washed again as before. 50 μL of SUPERSIGNAL ELISA Pico substrate is added and the plate is read on the FUSION plate reader (Packard/Perkin Elmer). The data is analyzed using the EXCEL program. Duplicate samples are averaged and the error bars represent the standard deviation between the two replicates."}, "TGF-α": {"molecular_target": "TGF-α (Homo sapiens, UniProt P01135)", "test": "binding specificity ELISA", "conditions": "IgG2 isotype of Ab #6", "method": "as §4"}, "[3]": {"molecular_target": "T2, recombinant human ErbB3 ectodomain (Homo sapiens, UniProt P21860)", "T2 construct": "recombinant human ErbB3 ectodomain", "test": "binding specificity ELISA", "conditions": "IgG2 isotype of Ab #6", "method": "as §4"}, "ErbB3 in AdrR xenografts": {"molecular_target": "T3, ErbB3 in AdrR xenografts (Homo sapiens, UniProt P21860)", "T3 construct": "host or cells: AdrR (NCI/AdrR) ovarian cancer cells", "test": "total ErbB3 in AdrR xenografts in vivo by ELISA", "design": "species or system mouse", "method": "Briefly, the samples were pulverized in a cryopulverizer (Covaris Inc). Tumors were stored in special bags (pre-weighed before the addition of the tumor) and placed in liquid nitrogen while handling them. For small tumors, 200 μL of Lysis buffer was first added to the bag with the tumor, frozen in liquid nitrogen and then pulverized to improve the recovery of the tumor from the bag. Pulverized tumors were transferred to 2 ml EPPENDORF tubes and placed in liquid nitrogen until lysed. Tumors were lysed in Lysis buffer supplemented with protease and phosphatase inhibitors. Lysis Buffer was added to the tumor aliquots in a final concentration of 62.5 mg/ml. Tumor samples were homogenized by vortexing for 30 seconds and letting them sit on ice for 30 min. The lysates were spun for 10 minutes in QIAGEN […] columns for further homogenization of the samples. Cleared lysates were aliquoted into fresh tubes.\nThe BCA assay is performed as set forth substantially as described in the materials and methods section supra.\nThe total levels of ErbB3 were determined by ELISA. The ELISA reagents were purchased from R&D Systems as DUOSET kits. […] Fifty microliters of SUPERSIGNAL ELISA Pico substrate was added and readout was performed on a Fusion plate reader. Data was analyzed using Microsoft EXCEL. […]"}, "COLO-357 cells": {"system": "COLO-357 cells", "test": "VEGF secretion assay (VEGF ELISA)", "format": "cell-based, human", "conditions": "untreated and HRG treated COLO-357", "text": "(§5) In contrast, HRG is able to induce more than a doubling of VEGF secretion in MCF-7 and T47D cells."}, "MCF-7 cells": {"system": "MCF-7 cells", "test": "VEGF secretion assay (VEGF ELISA)", "format": "cell-based, human", "conditions": "untreated and HRG treated MCF-7", "text": "as §5"}, "ACHN cells": {"system": "ACHN cells", "test": "CellTiter-Glo proliferation assay", "format": "cell-based, human", "conditions": "96 hours", "method": "(§6) MALME3M, ACHN and NCI/AdrR cells are seeded in 96 well tissue culture plates and grown in RPMI-1640 media supplemented with antibiotics, 2 mM L-glutamine and 10% FBS for 24 hours at 37 degrees Celsius and 5% carbon dioxide. […] Cells are grown for 96 hours at 37° C. and 5% carbon dioxide, then harvested with CellTiter-Glo® Luminescent Cell Viability Assay (Promega, G7573) and analyzed on a luminometer. Media containing no serum and antibody is used as control."}, "MALME-3M cells": {"system": "MALME-3M cells", "test": "CellTiter-Glo proliferation assay", "format": "cell-based, human", "conditions": "96 hours", "method": "as §6"}, "[4]": {"system": "AdrR ovarian cancer cells", "test": "CellTiter-Glo proliferation assay", "format": "cell-based, human", "conditions": "96 hours", "method": "as §6"}}, "data": [{"molecule": "B1", "values": [{"measurement": "inhibition of tumor growth", "setting": "AdrR (ovarian) xenograft", "result": "significant inhibition of tumor growth"}, {"measurement": "inhibition of tumor growth", "setting": "[1]; 300 ug every three days (Q3d), p<0.05", "result": "significant inhibition of tumor growth"}, {"measurement": "inhibition of tumor growth", "setting": "[1]; 1500 ug Q3d versus 600 ug", "result": "did not result in increased efficacy"}, {"measurement": "binding in ELISA", "setting": "[2]", "result": "did not show any appreciable binding"}, {"measurement": "binding in ELISA", "setting": "TGF-α", "result": "did not show any appreciable binding"}, {"measurement": "binding in ELISA", "setting": "[3]", "result": "bound recombinant ErbB3"}, {"measurement": "downregulation of ErbB3 in xenografts", "setting": "ErbB3 in AdrR xenografts", "result": "downregulated ErbB3"}, {"measurement": "inhibition of VEGF secretion", "setting": "COLO-357 cells", "result": "potent inhibitory effect at high levels in all three cell lines with the highest being in COLO-357"}, {"measurement": "inhibition of VEGF secretion", "setting": "MCF-7 cells", "result": "potent inhibitory effect at high levels in all three cell lines"}, {"measurement": "inhibition of proliferation", "setting": "ACHN cells", "result": "about 25.4%"}, {"measurement": "inhibition of proliferation", "setting": "MALME-3M cells", "result": "about 19.6%"}, {"measurement": "inhibition of proliferation", "setting": "[4]", "result": "about 30.5%"}]}]}
